Source: paper PMC9132248

Assays:
Conditions in all cases: glycan lost; control: wild type APP-SNAP
[1] = confocal, plasma-membrane share of total APP-SNAP intensity per cell
[2] = Aβ42 ELISA of culture medium (secreted)
[3] = live-cell confocal colocalisation with SiR-lysosome
[4] = Airyscan colocalisation with early endosome marker EEA1
[5] = confocal colocalisation with Golgi marker GRASP65
[6] = Aβ42 ELISA of cell lysate (intracellular)
[7] = confocal, fraction of cells with plasma-membrane APP-SNAP
[8] = confocal imaging, size of APP-SNAP-positive vesicles

| Substance | localisation_or_trafficking [1] | other: proteolytic processing [2] | localisation_or_trafficking [3] | localisation_or_trafficking [4] | localisation_or_trafficking [5] | other: proteolytic processing [6] | localisation_or_trafficking, other: percent of cells with APP-SNAP in plasma membrane [7] | localisation_or_trafficking [8] |
| --- | --- | --- | --- | --- | --- | --- | --- | --- |
| amyloid precursor protein (hAPP695-SNAP): N467Q | decreases | increases | decreases | no change | no change | increases | decreases, 11.8 vs 35.3 | decreases |
| amyloid precursor protein (hAPP695-SNAP): N496Q | decreases | increases | decreases | no change | no change | increases | decreases, 9.8 vs 35.3 | decreases |
